The values below come from PMC3394720.

The test addresses MCMV nuclear capsids (murine cytomegalovirus (MCMV) | murine cytomegalovirus (MCMV), Smith strain). As to the kind of experiment: immunoelectron microscopy of purified nuclear capsids; nuclear capsids purified on a sucrose gradient from infected cells, adsorbed on grids, rabbit GFP antiserum and protein A-gold (10 nm); gold beads per capsid counted; WT capsids as background.

“S-GFP-SCP fusion protein expressed ectopically from recombinant MCMV” had a gold beads per capsid (anti-GFP immunogold) (gold beads per capsid) of 15.
